# Results published in article PMC10686819.
# Where “and” joins values, the source holds several entries; their conditions need not be identical. Equal values may be shown once. Read-outs that look alike come from different tables or passages of the source.
# Assays:
# Assay in all cases: cryo-EM structure
# [1] = target: B41 HT2 soluble Env heterotrimer (two B41 SOSIP.664 protomers, one D7324-tagged B41-D368R SOSIP.664 protomer) (HIV-1 (clade B, B41))
# [2] = target: BG505 HT2 soluble Env heterotrimer (two BG505 SOSIP.664 protomers, one D7324-tagged BG505-D368R SOSIP.664 protomer) (HIV-1 (clade A, BG505))
# [3] = target: BG505 HT1 soluble Env heterotrimer (two BG505-D368R SOSIP.664 protomers, one D7324-tagged BG505 SOSIP.664 protomer) (HIV-1 (clade A, BG505))
# [4] = target: BG505 HT2 soluble Env heterotrimer (two BG505 SOSIP.664 protomers, one D7324-tagged BG505-D368R SOSIP.664 protomer) (HIV-1 (clade A, BG505)); remark: listed apart in the source
# [5] = target: BG505 HT1 soluble Env heterotrimer (two BG505-D368R SOSIP.664 protomers, one D7324-tagged BG505 SOSIP.664 protomer) (HIV-1 (clade A, BG505)); remark: listed apart in the source
Substance,stoichiometry N [1],stoichiometry N [2],stoichiometry N [3],stoichiometry N [4],stoichiometry N [5]
CD4 (as used in the cryo-EM complex with B41 HT2; version not stated) (from UniProt P01730 26-396) (receptor),2,,,,
"CD4 D1-D4 (domains 1-4), soluble (receptor)",,2 and 1,1,3,3
